Where “and” joins values, the source holds several entries; their conditions need not be identical. Identical values can stand only once. Like-named read-outs stand apart in the source and are kept apart here.
Tests used:
Assay in all cases: cell-based or functional assay
[1] = biological target: T1, Ct.Ste2, Ste2-like mating GPCR of Candida tropicalis (Candida tropicalis)
T1 chain: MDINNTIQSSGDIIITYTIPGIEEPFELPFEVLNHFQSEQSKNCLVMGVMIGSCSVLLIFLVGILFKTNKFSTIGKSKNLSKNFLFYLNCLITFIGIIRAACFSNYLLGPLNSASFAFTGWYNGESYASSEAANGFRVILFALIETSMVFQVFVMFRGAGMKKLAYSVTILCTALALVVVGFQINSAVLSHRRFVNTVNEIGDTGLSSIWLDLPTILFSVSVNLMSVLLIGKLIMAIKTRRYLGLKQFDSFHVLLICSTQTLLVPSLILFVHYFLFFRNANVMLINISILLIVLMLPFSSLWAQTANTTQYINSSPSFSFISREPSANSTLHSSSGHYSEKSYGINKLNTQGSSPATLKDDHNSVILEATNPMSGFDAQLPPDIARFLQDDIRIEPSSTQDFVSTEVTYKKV

[2] = biological target: T2, Kp.Ste2, Ste2-like mating GPCR of Komagataella (Pichia) pastoris (Komagataella (Pichia) pastoris)
T2 chain: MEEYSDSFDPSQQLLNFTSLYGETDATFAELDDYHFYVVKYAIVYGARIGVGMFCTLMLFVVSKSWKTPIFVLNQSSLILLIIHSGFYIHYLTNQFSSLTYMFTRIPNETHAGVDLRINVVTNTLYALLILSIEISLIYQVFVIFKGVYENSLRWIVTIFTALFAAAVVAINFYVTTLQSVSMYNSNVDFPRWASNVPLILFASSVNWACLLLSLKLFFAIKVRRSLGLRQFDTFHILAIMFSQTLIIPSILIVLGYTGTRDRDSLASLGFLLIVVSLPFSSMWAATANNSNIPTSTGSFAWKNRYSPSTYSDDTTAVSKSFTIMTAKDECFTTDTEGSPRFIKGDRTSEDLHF

[3] = biological target: T3, Gc.Ste2, Ste2-like mating GPCR of Geotrichum candidum (Geotrichum candidum)
T3 chain: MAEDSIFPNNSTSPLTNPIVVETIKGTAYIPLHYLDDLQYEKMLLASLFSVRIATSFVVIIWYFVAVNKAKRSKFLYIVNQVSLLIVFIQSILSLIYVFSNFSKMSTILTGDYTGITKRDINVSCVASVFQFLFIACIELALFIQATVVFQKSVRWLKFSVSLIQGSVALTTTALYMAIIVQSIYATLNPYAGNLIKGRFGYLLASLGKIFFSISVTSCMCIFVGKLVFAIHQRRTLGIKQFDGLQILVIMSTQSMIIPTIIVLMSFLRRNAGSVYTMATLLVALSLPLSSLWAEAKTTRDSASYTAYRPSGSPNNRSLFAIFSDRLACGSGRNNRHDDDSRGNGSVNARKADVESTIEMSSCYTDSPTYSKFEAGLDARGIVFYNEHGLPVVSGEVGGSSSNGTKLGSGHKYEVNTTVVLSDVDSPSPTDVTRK

[4] = biological target: T4, Sc.Ste2, Saccharomyces cerevisiae mating GPCR Ste2 (Saccharomyces cerevisiae, UniProt D6VTK4 1-431)
T4 sequence: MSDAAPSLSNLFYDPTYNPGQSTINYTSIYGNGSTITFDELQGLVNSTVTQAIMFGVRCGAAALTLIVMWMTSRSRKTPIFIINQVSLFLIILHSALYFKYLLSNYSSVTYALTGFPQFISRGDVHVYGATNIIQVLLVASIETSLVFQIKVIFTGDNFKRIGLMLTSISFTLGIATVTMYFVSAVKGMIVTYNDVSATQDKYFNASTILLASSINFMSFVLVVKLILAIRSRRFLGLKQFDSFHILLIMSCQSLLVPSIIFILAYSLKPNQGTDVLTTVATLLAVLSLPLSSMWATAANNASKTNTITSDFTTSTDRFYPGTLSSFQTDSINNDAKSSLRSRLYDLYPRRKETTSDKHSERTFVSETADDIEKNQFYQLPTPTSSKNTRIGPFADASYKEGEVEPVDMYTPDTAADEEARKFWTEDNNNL

[5] = biological target: T4, Sc.Ste2, Saccharomyces cerevisiae …; remark: listed apart in the source
[6] = biological target: T5, Cp.Ste2, Ste2-like mating GPCR of Candida parapsilosis (Candida parapsilosis)
T5 chain: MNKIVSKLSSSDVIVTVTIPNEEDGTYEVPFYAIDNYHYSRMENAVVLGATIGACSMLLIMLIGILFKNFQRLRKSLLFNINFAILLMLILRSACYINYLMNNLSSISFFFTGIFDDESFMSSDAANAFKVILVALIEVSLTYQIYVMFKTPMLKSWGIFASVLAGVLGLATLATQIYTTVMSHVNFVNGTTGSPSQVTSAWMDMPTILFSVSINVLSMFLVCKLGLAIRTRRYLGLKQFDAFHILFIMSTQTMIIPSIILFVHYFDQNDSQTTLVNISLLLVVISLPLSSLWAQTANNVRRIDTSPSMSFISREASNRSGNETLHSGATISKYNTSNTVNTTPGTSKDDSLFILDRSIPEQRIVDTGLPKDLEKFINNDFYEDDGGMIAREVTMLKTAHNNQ

[7] = biological target: T6, Cn.Ste2, Ste2-like mating GPCR of Candida tenuis (Candida tenuis)
T6 chain: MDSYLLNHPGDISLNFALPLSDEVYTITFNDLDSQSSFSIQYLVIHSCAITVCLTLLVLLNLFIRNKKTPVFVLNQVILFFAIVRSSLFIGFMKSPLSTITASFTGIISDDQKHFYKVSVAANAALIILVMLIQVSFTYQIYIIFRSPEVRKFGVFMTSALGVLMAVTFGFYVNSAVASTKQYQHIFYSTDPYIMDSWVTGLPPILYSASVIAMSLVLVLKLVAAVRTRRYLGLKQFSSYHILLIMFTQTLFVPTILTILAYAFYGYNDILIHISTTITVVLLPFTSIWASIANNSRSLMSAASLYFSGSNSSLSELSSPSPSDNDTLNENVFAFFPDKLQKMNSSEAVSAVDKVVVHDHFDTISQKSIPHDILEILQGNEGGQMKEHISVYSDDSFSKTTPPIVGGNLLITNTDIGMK

[8] = biological target: T7, Kl.Ste2, Ste2-like mating GPCR of Kluyveromyces lactis (Kluyveromyces lactis)
T7 chain: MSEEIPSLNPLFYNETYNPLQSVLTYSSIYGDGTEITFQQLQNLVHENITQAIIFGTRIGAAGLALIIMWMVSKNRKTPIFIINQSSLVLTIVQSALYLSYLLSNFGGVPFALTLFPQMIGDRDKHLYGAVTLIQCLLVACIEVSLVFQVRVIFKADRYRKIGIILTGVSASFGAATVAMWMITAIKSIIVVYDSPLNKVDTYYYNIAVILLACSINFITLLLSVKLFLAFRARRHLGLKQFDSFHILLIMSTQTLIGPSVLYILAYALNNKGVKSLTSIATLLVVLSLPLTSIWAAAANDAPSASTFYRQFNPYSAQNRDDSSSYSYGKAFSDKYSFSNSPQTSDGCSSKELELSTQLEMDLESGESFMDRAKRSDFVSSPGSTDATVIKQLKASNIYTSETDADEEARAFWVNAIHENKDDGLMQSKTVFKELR

For KFKFRLTRYGWFSPN [Ct peptide ligand #1 KFKFRLTRYGWFSPN], the “Bttm (FUS1p-RFP reporter)” value [1] was 32 fluorescence/A600 (not printed), the “EC50 (FUS1p-RFP reporter)” value [1] was -8.2 log10 M (not printed) and the “Fold Change (FUS1p-RFP reporter)” value [1] was 5.2 fold. The “Span (FUS1p-RFP reporter)” value [1] was 135 fluorescence/A600 (not printed) and the “Top (FUS1p-RFP reporter)” value [1] was 167 fluorescence/A600 (not printed).

For FRWRNNEKNQPFG [Kp peptide ligand #1 (Table 3: …)], the “Bttm (FUS1p-RFP reporter)” value [2] was 44.8 fluorescence/A600 (not printed), the “EC50 (FUS1p-RFP reporter)” value [2] was -8.2 log10 M (not printed) and the “Fold Change (FUS1p-RFP reporter)” value [2] was 6 fold. The “Span (FUS1p-RFP reporter)” value [2] was 224 fluorescence/A600 (not printed) and the “Top (FUS1p-RFP reporter)” value [2] was 269 fluorescence/A600 (not printed).

GDWGWFWYVPRPGDPAM [Gc peptide ligand #1 GDWGWFWYVPRPGDPAM] was tested, and the “Bttm (FUS1p-RFP reporter)” value [3] was 22.9 fluorescence/A600 (not printed), the “EC50 (FUS1p-RFP reporter)” value [3] was -6.9 log10 M (not printed) and the “Fold Change (FUS1p-RFP reporter)” value [3] was 8.2 fold. The “Span (FUS1p-RFP reporter)” value [3] was 164 fluorescence/A600 (not printed) and the “Top (FUS1p-RFP reporter)” value [3] was 187 fluorescence/A600 (not printed).

WHWLQLKPGQPMY [Sc peptide ligand #1 WHWLQLKPGQPMY (S. cerevisiae alpha-factor)] was tested, and the “EC50 (FUS1p-RFP reporter)” value [4] was 1.25 nM and ~1 nM, the “Bttm (FUS1p-RFP reporter)” value [5] was 36.2 fluorescence/A600 (not printed) and the “EC50 (FUS1p-RFP reporter)” value [5] was -8.9 log10 M (not printed). The “Fold Change (FUS1p-RFP reporter)” value [5] was 7 fold, the “Span (FUS1p-RFP reporter)” value [5] was 217 fluorescence/A600 (not printed) and the “Top (FUS1p-RFP reporter)” value [5] was 253 fluorescence/A600 (not printed).

With KPHWTTYGYYEPQ [Cp peptide ligand #1 KPHWTTYGYYEPQ] the “Bttm (FUS1p-RFP reporter)” value [6] was 36.2 fluorescence/A600 (not printed), the “EC50 (FUS1p-RFP reporter)” value [6] was -8.5 log10 M (not printed) and the “Fold Change (FUS1p-RFP reporter)” value [6] was 7 fold. The “Span (FUS1p-RFP reporter)” value [6] was 218 fluorescence/A600 (not printed) and the “Top (FUS1p-RFP reporter)” value [6] was 254 fluorescence/A600 (not printed).

In the case of FSWNYRLKWQPIS [Cn peptide ligand #1 FSWNYRLKWQPIS], the “Bttm (FUS1p-RFP reporter)” value [7] is reported as 29.7 fluorescence/A600 (not printed), the “EC50 (FUS1p-RFP reporter)” value [7] is reported as -7.4 log10 M (not printed) and the “Fold Change (FUS1p-RFP reporter)” value [7] is reported as 5.1 fold. For the same binder, the “Span (FUS1p-RFP reporter)” value [7] was 122 fluorescence/A600 (not printed) and the “Top (FUS1p-RFP reporter)” value [7] was 152 fluorescence/A600 (not printed).

For WSWITLRPGQPIF [Kl peptide ligand #1 WSWITLRPGQPIF], the “Bttm (FUS1p-RFP reporter)” value [8] was 37.2 fluorescence/A600 (not printed), the “EC50 (FUS1p-RFP reporter)” value [8] was -7.3 log10 M (not printed) and the “Fold Change (FUS1p-RFP reporter)” value [8] was 6 fold. The “Span (FUS1p-RFP reporter)” value [8] was 186 fluorescence/A600 (not printed) and the “Top (FUS1p-RFP reporter)” value [8] was 223 fluorescence/A600 (not printed).
